Measurements from PMC8682488, “c-di-GMP Homeostasis Is Critical for Heterocyst Development in Anabaena sp. PCC 7120” (Frontiers in Microbiology, 2021).

T1: CdgS (Nostoc sp. PCC 7120 = FACHB-418, UniProt A0ACD7RTW6)
T1 construct: gene all2874; N-terminal REC and C-terminal GGDEF domain, two C-terminal Strep-tags (pHTwinStrep), E. coli BL21(DE3), Strep-Tactin purified
T1 sequence (A0ACD7RTW6 1-330): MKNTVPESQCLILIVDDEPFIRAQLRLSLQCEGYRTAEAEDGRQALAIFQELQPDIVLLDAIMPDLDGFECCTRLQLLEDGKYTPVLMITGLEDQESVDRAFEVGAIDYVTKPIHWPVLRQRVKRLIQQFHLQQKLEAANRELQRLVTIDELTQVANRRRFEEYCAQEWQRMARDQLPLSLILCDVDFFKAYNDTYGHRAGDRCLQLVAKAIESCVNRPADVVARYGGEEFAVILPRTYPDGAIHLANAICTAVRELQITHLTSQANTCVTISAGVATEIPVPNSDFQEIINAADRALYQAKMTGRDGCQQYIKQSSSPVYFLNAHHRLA

B1: CdgSH (Nostoc sp. PCC 7120 = FACHB-418) (protein)
chain: MPGNEWEKIRHILVVQDLQGQRTIPLQEATYSIGRHTSNAIVLHSRSVSRQHAILLRVTLPETDQCSFRIIDGNFKGQGSTNGLLVNGTRCFSHNLRHGDVINFGSHQAQAKYYAISNISEKAFFASADVEDLSTFLSELSQPVNPFQTLVVDPEFEGASETALARLASFPELIPNPIIETDLEGRVTYINPAASVKFPDLRELGKQHPILKDILNIAENPKINPFVREVTVGHAVYEQSVHNLPESDLIRTYIIRDVTEQKQAEAELHQRDRLLQAVAEAANWLVVEMNYDTAIEKALAVVGEAAQADRAYLFKNHPHPITGKRAVSLQFEWYGSDLQPSIQDWQNQLYQSTELSRWYSVLSSGKSINELRRKLPVAERELLERQGIQSLLLVPLGLEDQFWGYLGLADCTQERYWSRHEESTLLTMAASISGAWQRQQVEEKIRYQALHDLLTGLPNRLLFNELLAKALANASRSQESLAVMFLDLDRFKVINDTLGHTLGDRLLQSVAQRLRDCLRSGDTVSRWGGDEFTILLPHISYIEEVTQAACRILKALEEVFHLDGHELYVSASLGIALLDHHSPDAEALIKHADAALYHAKDEGRNNYQFYTTSLSGKTPELLTLEKSLRYALEKQELKVYYQPRVNILTGQITGMEALLRWQHPEMGIVAPSIFIPIAEETGLIIPIGEWVLRTACMQNRAWQEAGLPPVQMAVNLSPKQFRQPTLLELVSAILAETGLAPEFLELEITESTAIEDIDFTRSVLENLQQMGVDIAIDDFGTGHSSLSRLQLLPLHNLKIDGSFIKALTTDSKVAHIVKAIVTLGRSLGLRLTAEGVEKQEELDFLKSINCQDVQGFLFHKPLSAEKATEILQGEKKHATL
notes: FHA-PAS-GAF-GGDEF-EAL protein, two C-terminal Strep-tags (pHTwinStrep), E. coli BL21(DE3), Strep-Tactin purified
B2: CdgSH (Nostoc sp. PCC 7120 = FACHB-418; E656A/L658A) (protein)
chain: MPGNEWEKIRHILVVQDLQGQRTIPLQEATYSIGRHTSNAIVLHSRSVSRQHAILLRVTLPETDQCSFRIIDGNFKGQGSTNGLLVNGTRCFSHNLRHGDVINFGSHQAQAKYYAISNISEKAFFASADVEDLSTFLSELSQPVNPFQTLVVDPEFEGASETALARLASFPELIPNPIIETDLEGRVTYINPAASVKFPDLRELGKQHPILKDILNIAENPKINPFVREVTVGHAVYEQSVHNLPESDLIRTYIIRDVTEQKQAEAELHQRDRLLQAVAEAANWLVVEMNYDTAIEKALAVVGEAAQADRAYLFKNHPHPITGKRAVSLQFEWYGSDLQPSIQDWQNQLYQSTELSRWYSVLSSGKSINELRRKLPVAERELLERQGIQSLLLVPLGLEDQFWGYLGLADCTQERYWSRHEESTLLTMAASISGAWQRQQVEEKIRYQALHDLLTGLPNRLLFNELLAKALANASRSQESLAVMFLDLDRFKVINDTLGHTLGDRLLQSVAQRLRDCLRSGDTVSRWGGDEFTILLPHISYIEEVTQAACRILKALEEVFHLDGHELYVSASLGIALLDHHSPDAEALIKHADAALYHAKDEGRNNYQFYTTSLSGKTPELLTLEKSLRYALEKQELKVYYQPRVNILTGQITGMAAALRWQHPEMGIVAPSIFIPIAEETGLIIPIGEWVLRTACMQNRAWQEAGLPPVQMAVNLSPKQFRQPTLLELVSAILAETGLAPEFLELEITESTAIEDIDFTRSVLENLQQMGVDIAIDDFGTGHSSLSRLQLLPLHNLKIDGSFIKALTTDSKVAHIVKAIVTLGRSLGLRLTAEGVEKQEELDFLKSINCQDVQGFLFHKPLSAEKATEILQGEKKHATL
notes: as for B1
B3: CdgSH (Nostoc sp. PCC 7120 = FACHB-418; D530A/E531A) (protein)
chain: MPGNEWEKIRHILVVQDLQGQRTIPLQEATYSIGRHTSNAIVLHSRSVSRQHAILLRVTLPETDQCSFRIIDGNFKGQGSTNGLLVNGTRCFSHNLRHGDVINFGSHQAQAKYYAISNISEKAFFASADVEDLSTFLSELSQPVNPFQTLVVDPEFEGASETALARLASFPELIPNPIIETDLEGRVTYINPAASVKFPDLRELGKQHPILKDILNIAENPKINPFVREVTVGHAVYEQSVHNLPESDLIRTYIIRDVTEQKQAEAELHQRDRLLQAVAEAANWLVVEMNYDTAIEKALAVVGEAAQADRAYLFKNHPHPITGKRAVSLQFEWYGSDLQPSIQDWQNQLYQSTELSRWYSVLSSGKSINELRRKLPVAERELLERQGIQSLLLVPLGLEDQFWGYLGLADCTQERYWSRHEESTLLTMAASISGAWQRQQVEEKIRYQALHDLLTGLPNRLLFNELLAKALANASRSQESLAVMFLDLDRFKVINDTLGHTLGDRLLQSVAQRLRDCLRSGDTVSRWGGAAFTILLPHISYIEEVTQAACRILKALEEVFHLDGHELYVSASLGIALLDHHSPDAEALIKHADAALYHAKDEGRNNYQFYTTSLSGKTPELLTLEKSLRYALEKQELKVYYQPRVNILTGQITGMEALLRWQHPEMGIVAPSIFIPIAEETGLIIPIGEWVLRTACMQNRAWQEAGLPPVQMAVNLSPKQFRQPTLLELVSAILAETGLAPEFLELEITESTAIEDIDFTRSVLENLQQMGVDIAIDDFGTGHSSLSRLQLLPLHNLKIDGSFIKALTTDSKVAHIVKAIVTLGRSLGLRLTAEGVEKQEELDFLKSINCQDVQGFLFHKPLSAEKATEILQGEKKHATL
notes: as for B1

Experiments:
[1] = target: T1, CdgS; test: HPLC, diguanylate cyclase product formation; format: biochemical; details: DGC activity (GTP to c-di-GMP); 50 μM GTP, 2 μM protein, pH 8.0, 10 mM MgCl2, 25 °C, 30 min
[2] = substrate: Nc1nc2c(ncn2[C@@H]2O[C@@H]3CO[P@](=O)(O)O[C@H]4[C@@H](O)[C@H](n5cnc6c(=O)[nH]c(N)nc65)O[C@@H]4CO[P@](=O)(O)O[C@H]3[C@H]2O)c(=O)[nH]1; test: HPLC, c-di-GMP phosphodiesterase steady-state kinetics; format: biochemical, Nostoc sp. PCC 7120 = FACHB-418; details: PDE activity (c-di-GMP to pGpG), EAL domain, 50 mM Tris-HCl pH 8.0, 10 mM MgCl2, 0.5 mM EDTA, 300 mM NaCl, 25 °C
Source text: HPLC, c-di-GMP phosphodiesterase steady-state kinetics on CdgSH

[3] = substrate: Nc1nc2c(ncn2[C@@H]2O[C@H](COP(=O)(O)OP(=O)(O)OP(=O)(O)O)[C@@H](O)[C@H]2O)c(=O)[nH]1; test: HPLC, diguanylate cyclase steady-state kinetics; format: biochemical, Nostoc sp. PCC 7120 = FACHB-418; details: DGC activity (GTP to c-di-GMP), GGDEF domain, 50 mM Tris-HCl pH 8.0, 10 mM MgCl2, 0.5 mM EDTA, 300 mM NaCl, 25 °C
Source text: HPLC, diguanylate cyclase steady-state kinetics on CdgSH

Molecule | HPLC, diguanylate cyclase product formation [1] | Km [2] | kcat [2] | Km [3] | kcat [3]
Nc1nc2c(ncn2[C@@H]2O[C@H](COP(=O)(O)OP(=O)(O)OP(=O)(O)O)[C@@H](O)[C@H]2O)c(=O)[nH]1 [GTP] | CdgS could convert the substrate GTP to c-di-GMP | – | – | – | –
B1 | – | 23.5 µM | 1.26 s⁻¹ | 37.2 µM | 0.39 s⁻¹
B2 | – | – | – | 34.8 µM | 0.12 s⁻¹
B3 | – | 31.0 µM | 1.78 s⁻¹ | – | –
